Target: high mobility group box 1 protein (HMGB1) (Homo sapiens (Human)) (UniProt P09429)
Test: SPR (Reichert SR7500DC), HMGB1 coated on CMDH chip

UniProt P09429, sequence (P09429 whole entry, form in doubt): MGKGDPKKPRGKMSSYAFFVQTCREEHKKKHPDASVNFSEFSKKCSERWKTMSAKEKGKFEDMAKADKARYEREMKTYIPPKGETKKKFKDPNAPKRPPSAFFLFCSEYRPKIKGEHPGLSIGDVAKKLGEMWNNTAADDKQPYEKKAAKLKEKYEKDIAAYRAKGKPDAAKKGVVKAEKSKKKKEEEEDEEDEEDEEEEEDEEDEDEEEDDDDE

| Substance | Kd | koff | kon |
| --- | --- | --- | --- |
| rTAT-HMGB1A-his6 (fusion of the TAT peptide and the A box domain of HMGB1, C-terminal six histidines) (from UniProt P04608 49-57; P09429 1-164) | 75.1 nM | 0.000691 s⁻¹ | 9200 M⁻¹ s⁻¹ |
| rHMGB1A-his6 (high mobility group box 1 A domain, C-terminal six histidines) (from UniProt P09429 1-164) | 2800 nM | 0.00394 s⁻¹ | 1400 M⁻¹ s⁻¹ |
